Laboratory results from patent US20210108174A1 (CRISPR THERAPEUTICS, published 2021).

Target: T1, biotinylated recombinant human BCMA (human, UniProt Q02223 1-54, biotinylated)
T1 construct: Bought reagent; also called biotinylated BCMA; Recombinant biotinylated human BCMA (Acro Biosystems Cat:# BC7-H82F0)
T1 sequence (looked up): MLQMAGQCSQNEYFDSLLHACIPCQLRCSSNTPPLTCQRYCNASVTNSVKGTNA
Experiment: flow cytometry, biotinylated BCMA detected with streptavidin-APC on CAR T cells

- percent of cells that bound biotinylated BCMA: 60%
B1: Anti-BCMA CAR of CTX-160 (CD28 co-stimulatory domain) (other)
chain: EVQLVESGGGLVQPGGSLKLSCAASGIDFSRYWMSWVRQAPGKGLEWIGEINPDSSTINYADSVKGRFTISRDNAKNTLYLQMNLSRAEDTALYYCASLYYDYGDAMDYWGQGTLVTVSSGGGGSGGGGSGGGGSDIQMTQSPSSLSASVGDRVTITCRASQSVDSNVAWYQQKPEKAPKSLIFSASLRFSGVPSRFSGSGSGTDFTLTISSLQPEDFATYYCQQYNSYPLTFGAGTKLEIKSAAAFVPVFLPAKPTTTPAPRPPTPAPTIASQPLSLRPEACRPAAGGAVHTRGLDFACDIYIWAPLAGTCGVLLLSLVITLYCNHRNRSKRSRLLHSDYMNMTPRRPGPTRKHYQPYAPPRDFAAYRSRVKFSRSADAPAYQQGQNQLYNELNLGRREEYDVLDKRRGRDPEMGGKPRRKNPQEGLYNELQKDKMAEAYSEIGMKGERRRGKGHDGLYQGLSTATKDTYDALHMQALPPR
notes: Chimeric antigen receptor on edited primary human T cells; also called anti-BCMA (CD28) CAR
